We go through 54 variants from publication PMC13397619.

The chains are these.
B1: NLV2 TCR alpha chain (CDR3α only) (parent)
chain: AGPMKTSYDKVI
partner: MLVPMVATV

The variants in this experiment derive from B1. Description: T-Switch: Jurkat TCRβ−/− cells expressing a CDR3 saturation-mutagenesis library, stained with two peptide-HLA-A*02:01 tetramers (original and novel peptide) plus anti-CD3, FACS-sorted into four gates, gDNA sequenced. Particulars: with HLA-A*02:01 with peptide … (NLV 3-1, the novel peptide), tetramers 1 µg/mL, 30 min on ice, SP, DP and SW gates expanded about 10 days between rounds ('two to three rounds of selection' in the Methods), gate SW: higher = more of the variant in the gate that binds the novel peptide and not the original one = switched binding. Fold enrichment of the CDR3 variant in one FACS gate of a two-tetramer stain, unresolved parent, parent is a CDR3 fragment, scale: fold enrichment, numbering: sequential-on-construct, sequence starts at 1.
For the variant […] (CDR3 as printed); P3I derived by comparing it with the table's wild-type CDR3 AGPMKTSYDKVI, the enrichment amounted to 0.
As for […] (CDR3 as printed); S7D derived by comparing it with the table's wild-type CDR3 AGPMKTSYDKVI, the figure is 0.
As for […] (CDR3 as printed); T6G derived by comparing it with the table's wild-type CDR3 AGPMKTSYDKVI, the figure is 0.
Consider […] (CDR3 as printed); V11Y derived by comparing it with the table's wild-type CDR3 AGPMKTSYDKVI, for which the enrichment came to 0.
Then […] (CDR3 as printed); P3H derived by comparing it with the table's wild-type CDR3 AGPMKTSYDKVI, with 0.
As for […] (CDR3 as printed); P3L derived by comparing it with the table's wild-type CDR3 AGPMKTSYDKVI, the figure is 0.
As to […] (CDR3 as printed); T6Y derived by comparing it with the table's wild-type CDR3 AGPMKTSYDKVI, the enrichment was determined as 0.
On to […] (CDR3 as printed); T6F derived by comparing it with the table's wild-type CDR3 AGPMKTSYDKVI, for which the enrichment is 0.
As for […] (CDR3 as printed); S7H derived by comparing it with the table's wild-type CDR3 AGPMKTSYDKVI, the enrichment was 0.
As for […] (CDR3 as printed); Y8V derived by comparing it with the table's wild-type CDR3 AGPMKTSYDKVI, the figure is 0; as for […] (CDR3 as printed); V11C derived by comparing it with the table's wild-type CDR3 AGPMKTSYDKVI, 0.
Then […] (CDR3 as printed); S7R derived by comparing it with the table's wild-type CDR3 AGPMKTSYDKVI, with 0.
Then […] (CDR3 as printed); M4P derived by comparing it with the table's wild-type CDR3 AGPMKTSYDKVI, with 0; and […] (CDR3 as printed); Y8R derived by comparing it with the table's wild-type CDR3 AGPMKTSYDKVI, with 0.
For the variant […] (CDR3 as printed); M4V derived by comparing it with the table's wild-type CDR3 AGPMKTSYDKVI, the enrichment is 0.
As for […] (CDR3 as printed); M4G derived by comparing it with the table's wild-type CDR3 AGPMKTSYDKVI, the figure is 0; as for […] (CDR3 as printed); V11P derived by comparing it with the table's wild-type CDR3 AGPMKTSYDKVI, 0.
As for […] (CDR3 as printed); P3F derived by comparing it with the table's wild-type CDR3 AGPMKTSYDKVI, the figure is 0.
As for […] (CDR3 as printed); Y8E derived by comparing it with the table's wild-type CDR3 AGPMKTSYDKVI, the figure is 52.6.
With […] (CDR3 as printed); M4H derived by comparing it with the table's wild-type CDR3 AGPMKTSYDKVI, the enrichment turned out to be 0.
For the variant […] (CDR3 as printed); M4I derived by comparing it with the table's wild-type CDR3 AGPMKTSYDKVI, the enrichment amounted to 0.
Then […] (CDR3 as printed); V11G derived by comparing it with the table's wild-type CDR3 AGPMKTSYDKVI, with 0; and […] (CDR3 as printed); T6D derived by comparing it with the table's wild-type CDR3 AGPMKTSYDKVI, with 0.
Then […] (CDR3 as printed); S7G derived by comparing it with the table's wild-type CDR3 AGPMKTSYDKVI, with 0.
Then […] (CDR3 as printed); S7Q derived by comparing it with the table's wild-type CDR3 AGPMKTSYDKVI, with 0; and […] (CDR3 as printed); Y8N derived by comparing it with the table's wild-type CDR3 AGPMKTSYDKVI, with 0.
With […] (CDR3 as printed); T6A derived by comparing it with the table's wild-type CDR3 AGPMKTSYDKVI, the enrichment is 0.
As for […] (CDR3 as printed); T6I derived by comparing it with the table's wild-type CDR3 AGPMKTSYDKVI, the figure is 0.
Then […] (CDR3 as printed); M4N derived by comparing it with the table's wild-type CDR3 AGPMKTSYDKVI, with 0; and […] (CDR3 as printed); V11W derived by comparing it with the table's wild-type CDR3 AGPMKTSYDKVI, with 0; and […] (CDR3 as printed); M4K derived by comparing it with the table's wild-type CDR3 AGPMKTSYDKVI, with 0.
As for […] (CDR3 as printed); Y8C derived by comparing it with the table's wild-type CDR3 AGPMKTSYDKVI, the figure is 0; as for […] (CDR3 as printed); T6R derived by comparing it with the table's wild-type CDR3 AGPMKTSYDKVI, 0; as for […] (CDR3 as printed); V11H derived by comparing it with the table's wild-type CDR3 AGPMKTSYDKVI, 0.
For the variant […] (CDR3 as printed); S7L derived by comparing it with the table's wild-type CDR3 AGPMKTSYDKVI, the enrichment was 0.
As for […] (CDR3 as printed); V11N derived by comparing it with the table's wild-type CDR3 AGPMKTSYDKVI, the figure is 0; as for […] (CDR3 as printed); Y8S derived by comparing it with the table's wild-type CDR3 AGPMKTSYDKVI, 0; as for […] (CDR3 as printed); V11T derived by comparing it with the table's wild-type CDR3 AGPMKTSYDKVI, 0.
Then […] (CDR3 as printed); T6E derived by comparing it with the table's wild-type CDR3 AGPMKTSYDKVI, with 0.
As for […] (CDR3 as printed); S7M derived by comparing it with the table's wild-type CDR3 AGPMKTSYDKVI, the figure is 0; as for […] (CDR3 as printed); V11L derived by comparing it with the table's wild-type CDR3 AGPMKTSYDKVI, 0.
As to […] (CDR3 as printed); M4Q derived by comparing it with the table's wild-type CDR3 AGPMKTSYDKVI, the enrichment stood at 0.
Then […] (CDR3 as printed); V11I derived by comparing it with the table's wild-type CDR3 AGPMKTSYDKVI, with 0; and […] (CDR3 as printed); S7Y derived by comparing it with the table's wild-type CDR3 AGPMKTSYDKVI, with 0.
As for […] (CDR3 as printed); S7F derived by comparing it with the table's wild-type CDR3 AGPMKTSYDKVI, the enrichment was 0.
As for […] (CDR3 as printed); Y8T derived by comparing it with the table's wild-type CDR3 AGPMKTSYDKVI, the figure is 0; as for […] (CDR3 as printed); Y8A derived by comparing it with the table's wild-type CDR3 AGPMKTSYDKVI, 77.9.
As to […] (CDR3 as printed); T6H derived by comparing it with the table's wild-type CDR3 AGPMKTSYDKVI, the enrichment was 0.
As for […] (CDR3 as printed); V11S derived by comparing it with the table's wild-type CDR3 AGPMKTSYDKVI, the figure is 0; as for […] (CDR3 as printed); P3Y derived by comparing it with the table's wild-type CDR3 AGPMKTSYDKVI, 0; as for […] (CDR3 as printed); P3V derived by comparing it with the table's wild-type CDR3 AGPMKTSYDKVI, 0.657.
Then […] (CDR3 as printed); S7E derived by comparing it with the table's wild-type CDR3 AGPMKTSYDKVI, with 0.
As for […] (CDR3 as printed); S7W derived by comparing it with the table's wild-type CDR3 AGPMKTSYDKVI, the figure is 0; as for […] (CDR3 as printed); S7V derived by comparing it with the table's wild-type CDR3 AGPMKTSYDKVI, 0.
